In patent US20050265970:

Assays:
[1] = target: T1, GST-Gadd45β (full-length murine Gadd45β directly fused to GST), P22339
T1 chain: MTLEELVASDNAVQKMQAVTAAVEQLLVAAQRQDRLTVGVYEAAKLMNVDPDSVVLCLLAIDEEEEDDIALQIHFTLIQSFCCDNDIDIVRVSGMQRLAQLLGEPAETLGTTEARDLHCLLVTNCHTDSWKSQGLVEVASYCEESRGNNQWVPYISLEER

[2] = target: Gadd45β-derived peptide 2 (pure synthetic peptide, sequence in FIG. 37C)
[3] = target: T2, His6-Gadd45β (full-length human Gadd45β purified from E. coli), O75293
T2 chain: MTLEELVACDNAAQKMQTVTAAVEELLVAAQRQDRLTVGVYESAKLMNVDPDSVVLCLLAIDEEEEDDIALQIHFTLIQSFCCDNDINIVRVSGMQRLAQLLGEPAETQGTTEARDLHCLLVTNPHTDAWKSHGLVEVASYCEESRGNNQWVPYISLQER

[4] = target: Gadd45β-derived peptide 8 (pure synthetic peptide, sequence in FIG. 37C)

B1: FLAG-MKK7 (FLAG-tagged JNKK2) immunoprecipitated from 293 cells (protein)
chain: MAASSLEQKLSRLEAKLKQENREARRRIDLNLDISPQRPRPTLQLPLANDGGSRSPSSESSPQHPTPPARPRHMLGLPSTLFTPRSMESIEIDQKLQEIMKQTGYLTIGGQRYQAEINDLENLGEMGSGTCGQVWKMRFRKTGHVIAVKQMRRSGNKEENKRILMDLDVVLKSHDCPYIVQCFGTFITNTDVFIAMELMGTCAEKLKKRMQGPIPERILGKMTVAIVKALYYLKEKHGVIHRDVKPSNILLDERGQIKLCDFGISGRLVDSKAKTRSAGCAAYMAPERIDPPDPTKPDYDIRADVWSLGISLVELATGQFPYKNCKTDFEVLTKVLQEEPPLLPGHMGFSGDFQSFVKDCLTKDHRKRPKYNKLLEHSFIKRYETLEVDVASWFKDVMAKTESPRTSGVLSQPHLPFFR
With B1 the “GST-JNK1 phosphorylation by MKK7 (kinase assay)” value [1] was “Both Gadd45β polypeptides, but neither GST nor His6-EF3, blocked GST-JNK1 phosphorylation by MKK7, in a dose-dependent manner”, the “JNKK2 kinase activity in vitro (phosphorylation of GST-JNK1)” value [1] was “both GST-Gadd45β and His6-Gadd45β effectively suppressed JNKK2 activity, in vitro, even at the lowest concentrations that were tested” and the “MKK7 kinase assay with GST-JNK1 substrate” value [2] was “the amino acid regions contained in the overlapping, Gadd45β-derived peptides 2 and 8 are sufficient to recapitulate most of the inhibitory activity of Gadd45β on MKK7”. The “GST-JNK1 phosphorylation by MKK7 (kinase assay)” value [3] was “Both Gadd45β polypeptides, but neither GST nor His6-EF3, blocked GST-JNK1 phosphorylation by MKK7, in a dose-dependent manner”, the “JNKK2 kinase activity in vitro (phosphorylation of GST-JNK1)” value [3] was “both GST-Gadd45β and His6-Gadd45β effectively suppressed JNKK2 activity, in vitro, even at the lowest concentrations that were tested” and the “MKK7 kinase assay with GST-JNK1 substrate” value [4] was “the amino acid regions contained in the overlapping, Gadd45β-derived peptides 2 and 8 are sufficient to recapitulate most of the inhibitory activity of Gadd45β on MKK7”.
